From paper PMC3069011 (Molecular Biology of the Cell, 2011)

Molecular target: T1, GST-Nup88 (human, UniProt Q99567 1-741)
T1 sequence (looked up): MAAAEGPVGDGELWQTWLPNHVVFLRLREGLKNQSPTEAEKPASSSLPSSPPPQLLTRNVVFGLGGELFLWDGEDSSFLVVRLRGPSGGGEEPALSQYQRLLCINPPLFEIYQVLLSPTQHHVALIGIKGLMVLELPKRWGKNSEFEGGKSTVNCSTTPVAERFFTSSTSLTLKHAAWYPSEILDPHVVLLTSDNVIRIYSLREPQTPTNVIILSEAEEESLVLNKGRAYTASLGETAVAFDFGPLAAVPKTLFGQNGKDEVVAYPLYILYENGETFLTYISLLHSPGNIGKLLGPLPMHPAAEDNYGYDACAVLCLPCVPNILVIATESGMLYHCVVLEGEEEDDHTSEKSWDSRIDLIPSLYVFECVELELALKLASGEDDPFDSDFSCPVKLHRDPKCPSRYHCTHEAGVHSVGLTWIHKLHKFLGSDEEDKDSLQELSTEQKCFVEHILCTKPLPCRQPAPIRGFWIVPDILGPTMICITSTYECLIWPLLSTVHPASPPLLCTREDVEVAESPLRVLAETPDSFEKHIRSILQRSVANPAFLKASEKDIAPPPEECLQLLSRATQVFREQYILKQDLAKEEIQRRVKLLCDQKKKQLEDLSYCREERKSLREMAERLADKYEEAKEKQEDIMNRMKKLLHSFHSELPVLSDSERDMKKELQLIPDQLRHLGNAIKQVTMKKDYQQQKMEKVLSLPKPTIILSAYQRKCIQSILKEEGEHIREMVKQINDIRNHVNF
Experiment: far-Western, overlay or dot blot

B1: lamin A tail (residues 243-664), bacterially expressed and purified (domain or fragment, human, UniProt P02545 243-664, looked up)
chain: DALQELRAQHEDQVEQYKKELEKTYSAKLDNARQSAERNSNLVGAAHEELQQSRIRIDSLSAQLSQLQKQLAAKEAKLRDLEDSLARERDTSRRLLAEKEREMAEMRARMQQQLDEYQELLDIKLALDMEIHAYRKLLEGEEERLRLSPSPTSQRSRGRASSHSSQTQGGGSVTKKRKLESTESRSSFSQHARTSGRVAVEEVDEEGKFVRLRNKSNEDQSMGNWQIKRQNGDDPLLTYRFPPKFTLKAGQVVTIWAAGAGATHSPPTDLVWKAQNTWGCGNSLRTALINSTGEEVAMRKLVRSVTVVEDDEDEDGDDLLHHHHGSHCSSSGDPAEYNLRSRTVLCGTCGQPADKASASGSGAQVGGPISSGSSASSVTVTRSYRSVGGSGGGSFGDNLVTRSYLLGNSSPRTQSPQNCSIM
- binding result: binds
